Source: EP0835662A2
pKd: −log10 of the molar value.

Experiments:
[1] = molecular target: high-affinity receptor for bombesin on primary tumor cells of human colon adenocarcinoma (human); test: 125I-bombesin receptor-ligand assay on cells, Scatchard (LIGAND); culture PTC-1
[2] = molecular target: high-affinity receptor for bombesin on primary tumor cells of human colon adenocarcinoma (human); test: 125I-bombesin receptor-ligand assay on cells, Scatchard (LIGAND); culture PTC-2
[3] = molecular target: high-affinity receptor for bombesin on primary tumor cells of human colon adenocarcinoma (human); test: 125I-bombesin receptor-ligand assay on cells, Scatchard (LIGAND); culture PTC-3
[4] = molecular target: high-affinity receptor for bombesin on primary tumor cells of human colon adenocarcinoma (human); test: 125I-bombesin receptor-ligand assay on cells, Scatchard (LIGAND); culture PTC-4
[5] = molecular target: high-affinity receptor for bombesin on primary tumor cells of human colon adenocarcinoma (human); test: 125I-bombesin receptor-ligand assay on cells, Scatchard (LIGAND); culture PTC-5
[6] = molecular target: high-affinity receptor for bombesin on primary tumor cells of human colon adenocarcinoma (human); test: 125I-bombesin receptor-ligand assay on cells, Scatchard (LIGAND); culture PTC-6
[7] = molecular target: high-affinity receptor for bombesin on primary tumor cells of human colon adenocarcinoma (human); test: 125I-bombesin receptor-ligand assay on cells, Scatchard (LIGAND); culture PTC-7
[8] = molecular target: high-affinity receptor for bombesin on primary tumor cells of human colon adenocarcinoma (human); test: 125I-bombesin receptor-ligand assay on cells, Scatchard (LIGAND); culture PTC-8
[9] = molecular target: receptor with a moderately high affinity for Substance P on primary tumor cells of human colon adenocarcinoma (human); test: 125I-Substance P receptor-ligand assay on cells, Scatchard (LIGAND); culture PTC-1
[10] = molecular target: receptor with a moderately high affinity for Substance P on primary tumor cells of human colon adenocarcinoma (human); test: 125I-Substance P receptor-ligand assay on cells, Scatchard (LIGAND); culture PTC-2
[11] = molecular target: receptor with a moderately high affinity for Substance P on primary tumor cells of human colon adenocarcinoma (human); test: 125I-Substance P receptor-ligand assay on cells, Scatchard (LIGAND); culture PTC-3
[12] = molecular target: receptor with a moderately high affinity for Substance P on primary tumor cells of human colon adenocarcinoma (human); test: 125I-Substance P receptor-ligand assay on cells, Scatchard (LIGAND); culture PTC-4
[13] = molecular target: receptor with a moderately high affinity for Substance P on primary tumor cells of human colon adenocarcinoma (human); test: 125I-Substance P receptor-ligand assay on cells, Scatchard (LIGAND); culture PTC-5
[14] = molecular target: receptor with a moderately high affinity for Substance P on primary tumor cells of human colon adenocarcinoma (human); test: 125I-Substance P receptor-ligand assay on cells, Scatchard (LIGAND); culture PTC-6
[15] = molecular target: receptor with a moderately high affinity for Substance P on primary tumor cells of human colon adenocarcinoma (human); test: 125I-Substance P receptor-ligand assay on cells, Scatchard (LIGAND); culture PTC-7
[16] = molecular target: receptor with a moderately high affinity for Substance P on primary tumor cells of human colon adenocarcinoma (human); test: 125I-Substance P receptor-ligand assay on cells, Scatchard (LIGAND); culture PTC-8
[17] = molecular target: high-affinity receptor for somatostatin on primary tumor cells of human colon adenocarcinoma (human); test: 125I-somatostatin receptor-ligand assay on cells, Scatchard (LIGAND); culture PTC-1
[18] = molecular target: receptor with a moderately high affinity for somatostatin on primary tumor cells of human colon adenocarcinoma (human); test: as above
[19] = molecular target: high-affinity receptor for somatostatin on primary tumor cells of human colon adenocarcinoma (human); test: 125I-somatostatin receptor-ligand assay on cells, Scatchard (LIGAND); culture PTC-2
[20] = molecular target: receptor with a moderately high affinity for somatostatin on primary tumor cells of human colon adenocarcinoma (human); test: as above
[21] = molecular target: high-affinity receptor for somatostatin on primary tumor cells of human colon adenocarcinoma (human); test: 125I-somatostatin receptor-ligand assay on cells, Scatchard (LIGAND); culture PTC-3
[22] = molecular target: receptor with a moderately high affinity for somatostatin on primary tumor cells of human colon adenocarcinoma (human); test: as above
[23] = molecular target: high-affinity receptor for somatostatin on primary tumor cells of human colon adenocarcinoma (human); test: 125I-somatostatin receptor-ligand assay on cells, Scatchard (LIGAND); culture PTC-4
[24] = molecular target: receptor with a moderately high affinity for somatostatin on primary tumor cells of human colon adenocarcinoma (human); test: as above
[25] = molecular target: high-affinity receptor for somatostatin on primary tumor cells of human colon adenocarcinoma (human); test: 125I-somatostatin receptor-ligand assay on cells, Scatchard (LIGAND); culture PTC-5
[26] = molecular target: receptor with a moderately high affinity for somatostatin on primary tumor cells of human colon adenocarcinoma (human); test: as above
[27] = molecular target: high-affinity receptor for somatostatin on primary tumor cells of human colon adenocarcinoma (human); test: 125I-somatostatin receptor-ligand assay on cells, Scatchard (LIGAND); culture PTC-6
[28] = molecular target: receptor with a moderately high affinity for somatostatin on primary tumor cells of human colon adenocarcinoma (human); test: as above
[29] = molecular target: high-affinity receptor for somatostatin on primary tumor cells of human colon adenocarcinoma (human); test: 125I-somatostatin receptor-ligand assay on cells, Scatchard (LIGAND); culture PTC-7
[30] = molecular target: receptor with a moderately high affinity for somatostatin on primary tumor cells of human colon adenocarcinoma (human); test: as above
[31] = molecular target: high-affinity receptor for somatostatin on primary tumor cells of human colon adenocarcinoma (human); test: 125I-somatostatin receptor-ligand assay on cells, Scatchard (LIGAND); culture PTC-8
[32] = molecular target: receptor with a moderately high affinity for somatostatin on primary tumor cells of human colon adenocarcinoma (human); test: as above
[33] = molecular target: high-affinity receptor for VIP on primary tumor cells of human colon adenocarcinoma (human); test: 125I-VIP receptor-ligand assay on cells, Scatchard (LIGAND); culture PTC-1
[34] = molecular target: receptor with a moderately high affinity for VIP on primary tumor cells of human colon adenocarcinoma (human); test: as above
[35] = molecular target: high-affinity receptor for VIP on primary tumor cells of human colon adenocarcinoma (human); test: 125I-VIP receptor-ligand assay on cells, Scatchard (LIGAND); culture PTC-2
[36] = molecular target: receptor with a moderately high affinity for VIP on primary tumor cells of human colon adenocarcinoma (human); test: as above
[37] = molecular target: high-affinity receptor for VIP on primary tumor cells of human colon adenocarcinoma (human); test: 125I-VIP receptor-ligand assay on cells, Scatchard (LIGAND); culture PTC-3
[38] = molecular target: receptor with a moderately high affinity for VIP on primary tumor cells of human colon adenocarcinoma (human); test: as above
[39] = molecular target: high-affinity receptor for VIP on primary tumor cells of human colon adenocarcinoma (human); test: 125I-VIP receptor-ligand assay on cells, Scatchard (LIGAND); culture PTC-4
[40] = molecular target: receptor with a moderately high affinity for VIP on primary tumor cells of human colon adenocarcinoma (human); test: as above
[41] = molecular target: high-affinity receptor for VIP on primary tumor cells of human colon adenocarcinoma (human); test: 125I-VIP receptor-ligand assay on cells, Scatchard (LIGAND); culture PTC-5
[42] = molecular target: receptor with a moderately high affinity for VIP on primary tumor cells of human colon adenocarcinoma (human); test: as above
[43] = molecular target: high-affinity receptor for VIP on primary tumor cells of human colon adenocarcinoma (human); test: 125I-VIP receptor-ligand assay on cells, Scatchard (LIGAND); culture PTC-6
[44] = molecular target: receptor with a moderately high affinity for VIP on primary tumor cells of human colon adenocarcinoma (human); test: as above
[45] = molecular target: high-affinity receptor for VIP on primary tumor cells of human colon adenocarcinoma (human); test: 125I-VIP receptor-ligand assay on cells, Scatchard (LIGAND); culture PTC-7
[46] = molecular target: receptor with a moderately high affinity for VIP on primary tumor cells of human colon adenocarcinoma (human); test: as above
[47] = molecular target: high-affinity receptor for VIP on primary tumor cells of human colon adenocarcinoma (human); test: 125I-VIP receptor-ligand assay on cells, Scatchard (LIGAND); culture PTC-8
[48] = molecular target: receptor with a moderately high affinity for VIP on primary tumor cells of human colon adenocarcinoma (human); test: as above

Substance: bombesin (peptide)
- pKd [1]: 9.36
- R(M/L) receptor number [1]: 2.24e-10 M/L
- pKd [2]: 9.23
- R(M/L) receptor number [2]: 3.22e-10 M/L
- pKd [3]: 9.24
- R(M/L) receptor number [3]: 2.97e-10 M/L
- pKd [4]: 9.25
- R(M/L) receptor number [4]: 2.89e-10 M/L
- pKd [5]: 9.34
- R(M/L) receptor number [5]: 3.35e-10 M/L
- pKd [6]: 9.31
- R(M/L) receptor number [6]: 2.24e-10 M/L
- pKd [7]: 9.17
- R(M/L) receptor number [7]: 2.55e-10 M/L
- pKd [8]: 9.05
- R(M/L) receptor number [8]: 2.85e-10 M/L

Substance: Substance P (from UniProt P20366 58-68) (peptide)
- pKd [9]: 6.81
- R(M/L) receptor number [9]: 1.85e-08 M/L
- pKd [10]: 6.76
- R(M/L) receptor number [10]: 1.71e-08 M/L
- pKd [11]: 6.87
- R(M/L) receptor number [11]: 1.49e-08 M/L
- pKd [12]: 6.81
- R(M/L) receptor number [12]: 1.66e-08 M/L
- pKd [13]: 7.68
- R(M/L) receptor number [13]: 6.2e-09 M/L
- pKd [14]: 6.63
- R(M/L) receptor number [14]: 2.95e-08 M/L
- pKd [15]: 7.58
- R(M/L) receptor number [15]: 7.48e-09 M/L
- pKd [16]: 6.73
- R(M/L) receptor number [16]: 1.32e-08 M/L

Substance: somatostatin (from UniProt P61278 103-116) (peptide)
- pKd [17]: 9.49
- R(M/L) receptor number [17]: 6.01e-11 M/L
- pKd [18]: 7.03
- R(M/L) receptor number [18]: 4.41e-09 M/L
- pKd [19]: 9.77
- R(M/L) receptor number [19]: 8.99e-11 M/L
- pKd [20]: 7.20
- R(M/L) receptor number [20]: 2.24e-09 M/L
- pKd [21]: 8.94
- R(M/L) receptor number [21]: 1.06e-10 M/L
- pKd [22]: 6.87
- R(M/L) receptor number [22]: 5.09e-09 M/L
- pKd [23]: 10.06
- R(M/L) receptor number [23]: 4.66e-11 M/L
- pKd [24]: 7.25
- R(M/L) receptor number [24]: 2.75e-09 M/L
- pKd [25]: 9.42
- R(M/L) receptor number [25]: 5.82e-11 M/L
- pKd [26]: 7.81
- R(M/L) receptor number [26]: 1.24e-09 M/L
- pKd [27]: 9.26
- R(M/L) receptor number [27]: 6.85e-11 M/L
- R(M/L) receptor number [28]: 1.16e-09 M/L
- pKd [29]: 8.95
- R(M/L) receptor number [29]: 9.81e-11 M/L
- pKd [30]: 6.89
- R(M/L) receptor number [30]: 3.89e-09 M/L
- pKd [31]: 9.02
- R(M/L) receptor number [31]: 1.74e-10 M/L
- pKd [32]: 7.00
- R(M/L) receptor number [32]: 6.59e-09 M/L

Substance: vasoactive intestinal peptide (VIP) (from UniProt P01282 125-152)
- pKd [33]: 8.98
- R(M/L) receptor number [33]: 4.83e-11 M/L
- pKd [34]: 6.20
- R(M/L) receptor number [34]: 1.78e-08 M/L
- pKd [35]: 8.84
- R(M/L) receptor number [35]: 6.23e-11 M/L
- pKd [36]: 6.37
- R(M/L) receptor number [36]: 1.03e-08 M/L
- pKd [37]: 8.20
- R(M/L) receptor number [37]: 2.45e-10 M/L
- pKd [38]: 5.82
- R(M/L) receptor number [38]: 2.93e-08 M/L
- pKd [39]: 7.96
- R(M/L) receptor number [39]: 2.75e-10 M/L
- pKd [40]: 6.02
- R(M/L) receptor number [40]: 5.03e-08 M/L
- pKd [41]: 7.71
- R(M/L) receptor number [41]: 5.29e-10 M/L
- pKd [42]: 5.45
- R(M/L) receptor number [42]: 8.72e-08 M/L
- pKd [43]: 8.36
- R(M/L) receptor number [43]: 1.05e-10 M/L
- pKd [44]: 5.73
- R(M/L) receptor number [44]: 3.21e-08 M/L
- pKd [45]: 8.83
- R(M/L) receptor number [45]: 6.12e-11 M/L
- pKd [46]: 6.26
- R(M/L) receptor number [46]: 9.37e-09 M/L
- pKd [47]: 8.75
- R(M/L) receptor number [47]: 1.5e-10 M/L
- pKd [48]: 5.07
- R(M/L) receptor number [48]: 8.49e-09 M/L
